Here are results for 6 molecules from publication PMC3571872 (Molecular Biology of the Cell, 2013).

The labels stand for the following.
B2: S780D GST-Kex2p C-tail fusion protein (domain or fragment, yeast, UniProt P13134 700-814, looked up)
chain: KSRRRIRRSRAETYEFDIIDTDSEYDSTLDNGTSGITEPEEVEDFDFDLSDEDHLASLSSSENGDAEHTIDSVLTNENPFDDPIKQKFPNDANAESASNKLQELQPDVPPSSGRS
B4: Gga2p VHS-GAT-His6 (domain or fragment, yeast, UniProt P38817 1-336, looked up)
chain: MSHPHSHSIYLSELPVRKPQALGNPLLRKIQRACRMSLAEPDLALNLDIADYINEKQGAAPRDAAIALAKLINNRESHVAIFALSLLDVLVKNCGYPFHLQISRKEFLNELVKRFPGHPPLRYSKIQRLILTAIEEWYQTICKHSSYKNDMGYIRDMHRLLKYKGYAFPKISESDLAVLKPSNQLKTASEIQKEQEIAQAAKLEELIRRGKPEDLREANKLMKIMAGFKEDNAVQAKQAISSELNKLKRKADLLNEMLESPDSQNWDNETTQELHSALKVAQPKFQKIIEEEQEDDALVQDLLKFNDTVNQLLEKFNLLKNGDSNAASQIHPSHVS

Square brackets hold non-standard residues; d marks the D form. pS = N[C@@H](COP(=O)(O)O)C(=O)O

For assay [1], the target named is S780A GST-Kex2p C-tail fusion protein (yeast) (UniProt P13134). The experiment in a line: pull-down.
The target is the same in assay [2]. The experiment in a line: ITC. On the technique in general: In ITC the heat of successive injections is recorded.
In assay [3] the target is B4. Description: pull-down.
Assay [4] deals with B4. Description: ITC.
Assay [5] addresses B2. Description: pull-down.

Broadly, the Kd is the concentration at which binding is half-saturated. Lower therefore signals tighter binding. In assay [1], “Gga2p VHS-GAT-His6 (from UniProt P38817 1-336) (domain or fragment)” yielded a fold lower binding than the WT tail of 2 fold and a t1/2 of dissociation of 40 min. Moreover, in assay [2], the Kd was determined as 400 µM.

B1: Phosphopeptide PP2 (peptide)
peptide: Ac-CTNENPF[pS]DPIKQKF-NH2
SMILES: CC[C@H](C)[C@H](NC(=O)[C@@H]1CCCN1C(=O)[C@H](CC(=O)O)NC(=O)[C@H](COP(=O)(O)O)NC(=O)[C@H](Cc1ccccc1)NC(=O)[C@@H]1CCCN1C(=O)[C@H](CC(N)=O)NC(=O)[C@H](CCC(=O)O)NC(=O)[C@H](CC(N)=O)NC(=O)[C@@H](NC(=O)[C@H](CS)NC(C)=O)[C@@H](C)O)C(=O)N[C@@H](CCCCN)C(=O)N[C@@H](CCC(N)=O)C(=O)N[C@@H](CCCCN)C(=O)N[C@@H](Cc1ccccc1)C(N)=O
B1: the binding result with Gga2p VHS-GAT-His6 [3] was “binds”.

As to Ac-CLTNENPFSDPIKQKF-NH2 [Nonphosphorylated peptide NPP], the binding result with Gga2p VHS-GAT-His6 [3] is “binds”.

In the assay with Gga2p VHS-GAT-His6 [4], B2 had a Kd of 6.6 µM.

B3: WT GST-Kex2p C-tail fusion protein (domain or fragment, yeast, UniProt P13134 700-814, looked up)
chain: KSRRRIRRSRAETYEFDIIDTDSEYDSTLDNGTSGITEPEEVEDFDFDLSDEDHLASLSSSENGDAEHTIDSVLTNENPFSDPIKQKFPNDANAESASNKLQELQPDVPPSSGRS
In the assay with Gga2p VHS-GAT-His6 [4], B3 displayed a Kd of 10 µM.

On to B4, for which, in assay [5], the “fold higher binding than the WT tail” value was 2 fold.
